Data set [1] concerns the target pRab8a(GTP): Rab8a (Q67L, residues 1-181) phosphorylated at T72, GTP-bound (UniProt P61006). The data set can be described thus: ITC. For orientation: Isothermal titration calorimetry measures the heat released or taken up as one component is titrated into another.
Data set [2] deals with the molecule itself. Briefly: crystal structure.

Where no end group is shown, it is not given here.

Chain of UniProt P61006 (P61006 1-181 Q67L): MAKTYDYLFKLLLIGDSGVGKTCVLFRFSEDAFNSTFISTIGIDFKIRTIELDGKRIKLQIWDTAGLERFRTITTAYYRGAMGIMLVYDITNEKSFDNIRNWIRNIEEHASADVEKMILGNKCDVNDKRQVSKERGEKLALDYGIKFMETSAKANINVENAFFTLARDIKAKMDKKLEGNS

In general, Kd refers to the constant that tells how readily two partners part at equilibrium. The low end stands for higher affinity, the high end for lower affinity. The molecule His6-NRPRFTLQELRDVLQERNKLKSQLLVVQEELQCYKSG (peptide, UniProt Q969X0 129-165, looked up) [His6-RILPL2, phospho-Rab binding domain of RILPL2 (residues 129-165)] showed a Kd in data set [1] of 3.3 µM. In addition, the binding result in data set [2] was “binds”.

For the origin of these results see paper doi:10.1101/739813 (bioRxiv, 2019).
